For two substances, relative binding, fold increase in binding against the 3 glycan fraction and relative binding (percent of control RAGE fusion protein) results are on record in US20130142792A1.

Test [1] deals with RAGE ligand (not named in the glycoform binding study). In words: binding assay of RP-HPLC glycoform fractions; method and ligand not stated; reference sample; data not shown.
The target is the same in test [2]. In words: binding assay of RP-HPLC glycoform fractions; reference is the 3-glycan fraction; method and ligand not stated; data not shown.
The target is the same in test [3]. The experiment in a line: binding assay of RP-HPLC glycoform fractions; method and ligand not stated; data not shown.

As for “control RAGE fusion protein (mixture of 67% 3-glycan and 22% 2 glycan RAGE fusion protein) (Fc fusion)”, in test [1], the relative binding was found to be 100%.

Consider “0-glycan RAGE fusion protein (RP-HPLC fraction of wild-type RAGE fusion protein) (Fc fusion)”, for which, in test [2], the fold increase in binding against the 3 glycan fraction is 10 fold. In test [3], this substance returned a relative binding (percent of control RAGE fusion protein) of 529%.
